Reference: the supplement of paper PMC12042874
± gives the uncertainty stated by the source.

Experiment: amyloid nucleation score (Sup35N fusion, yeast selection) (log enrichment); library NNK2; higher = more nucleation; inactive = no reads after selection
Summary of the method: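 Yeast lacking psi expressed peptides of 20 random codons fused to Sup35N, received 100 μM copper sulfate for 24 hours, and were then grown for 7 days at 30°C on medium lacking adenine and uracil. Illumina sequencing of input and output plasmid inserts provided the reads. Nucleation scores are DiMSum log enrichments of output over input, centred on the mode of non-aggregating sequences. Any sequence with under 100 input reads was excluded.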

Substance	amyloid nucleation score
YILLWVYIHDGLAWSTLLDW	0.757 ± 0.6
MSILESIRTRTRRVKGYLSC	0.315 ± 0.36
IPQEYPSDSMDVVMYISTLV	-0.016 ± 0.79
VTGNKEVMKIRCWVAHEESD	1.32 ± 0.37
LMLVVQALNHAYLLQVMSCT	0.805 ± 0.67
LYDIDWRFRHKDAHQCKVDR	-0.184 ± 1.1
KILNPERRSNGWVMMKFVVD	-0.599 ± 1
LAYPMISVFYHELIIDLRSM	3.92 ± 0.11
RRGENIDESVRVVEWGVDVM	0.64 ± 0.47
VFTFVKERQSTWVVSFPQFL	4.68 ± 0.066
WGVFWLPH	-0.807 ± 0.56
WRYITCHS	1.59 ± 0.55
DFGRWSTSGSVPCSGATCAV	2.43 ± 0.2
LVAALRV	-0.452 ± 0.39
QLFVMADNVRESSKTLRTIW	-0.513 ± 0.35
KVAFKIALKSSTIWFIDS	2.47 ± 0.13
DNVLYHPDGFGMISALTGVV	-0.753 ± 0.45
NHMLL	-0.313 ± 0.76
TCNSSGPMMRCLIHWETRHR	5.17 ± 0.093
ALNDAGYT	-0.656 ± 0.27
SNFVQSGG	0.138 ± 0.46
DKRLCLMVCNLLVYYMPF	-0.952 ± 0.63
RTGRPSHDFRYGKQRFMVRP	0.736 ± 0.74
FGSLTMEEFGDGDVVSNNKG	-0.956 ± 0.31
DRARMYYYSEIHSVVTSIIK	inactive

Substance	amyloid nucleation score
ASVENGSALIIRESDMSGGN	0.556 ± 0.43
YVGLV	-0.23 ± 0.22
SSLFYERRIQLCVFI	3.63 ± 0.077
TVPGNEEV	0.028 ± 0.53
TLSKVFRVRPGSMTTHCYIV	inactive
QGYAYMCTGSFFFSLLQVLS	3.79 ± 0.1
YLDAHILHE	4.54 ± 0.087
MLVWTNMFSTLYDISWKAPL	-1.02 ± 0.62
FYSLILMMEDGSEYVKVEFR	-1.38 ± 0.75
YIFSSVNERLCPALNGWHLD	inactive
GMSYGESWIGTNLAGRVRAL	1.29 ± 0.31
DGMSRSVRKNCEAGCRRSFG	4.58 ± 0.048
MNLWVMAFR	6.502 ± 0.065
IEFWDYKYVLVSSFVFKHDV	-0.069 ± 0.65
LKLYDKAR	0.213 ± 0.55
FSNIVNCSDRCATCVYFEFV	4.808 ± 0.047
TCIYSYRRNSCRIGCLRSWR	0.425 ± 0.6
GMSQAIVGVICSGIYLPEVR	0.44 ± 0.37
SYNKMMVDRFKYADLRDVRA	1.03 ± 0.38
LSYYKVIWGHLMVKYPTYRQ	-0.177 ± 0.32
NDWFCVVY	-1.48 ± 0.42
FVYVIFQSNMGPYWRNRRLL	0.636 ± 0.81
DVKKYLRGYCIRPCLLSYLI	-0.807 ± 0.79
FLYNFSHIRFVMYNRNESCF	3.48 ± 0.13
PEFLNKMQTTIYDKDCYMDR	inactive

Substance	amyloid nucleation score
KDPLNYNSYSVLLDIWWNLS	1.57 ± 0.15
VFFGVQNKR	3.04 ± 0.095
MSPWRDRSRFKIYDGPTWRM	0.728 ± 0.8
ENKGGCFARVDVGCVGSGMR	0.014 ± 0.42
RVGQSIYMPPLRNGRAGVKW	1.21 ± 0.27
WDNLNDFHN	-1.35 ± 1.1
GNWMRYIFSKWARLWGWKTY	inactive
AIRGTECYWLAWVGLAVKRR	1.12 ± 0.23
QLFMNPDWNKRHYNELYSSG	inactive
FYHCFDVLSSQMYYLKLLST	inactive
YCLSIWIDLSFIFVIRVDSG	inactive
RVGDEFVGCRWVSRIANSHS	2.23 ± 0.14
RSTLPGRRFFIGNILYN	-0.578 ± 0.78
CVCLD	0.1 ± 0.33
LLFIICTDSFRLPTANGELY	-1.17 ± 0.41
SGLEQRGMFRRKNLPIKWCL	3.89 ± 0.041
LFCSRQSTWPRDKGVFPWTI	-0.916 ± 1.1
LALIMTFLQPGERLRGSVAI	inactive
TFTFDGRSSNFG	-0.343 ± 0.55
VMGCFSIGGLGMGVPMVYSR	0.651 ± 0.44
PEWFGR	0.588 ± 0.23
WATFRPD	0.31 ± 0.54
NNLATPRQRVWLQVTLPARP	0.692 ± 0.21
RGLTKLSVLFRQNKESYNIV	-0.521 ± 0.76
GNGRHC	-0.021 ± 0.21

Substance	amyloid nucleation score
AWLLTLPKLYSLEC	-0.434 ± 0.6
FHNLASFVRKSRVYQHKRNA	-0.231 ± 0.63
VDVLLFRDYLNYSNLITHKV	-1.21 ± 0.54
FPGRSSCDHTAMWLL	0.732 ± 0.4
AFAVSSLESGWRRRTSLEWL	0.106 ± 0.55
SITMELVYLPYQFMKSRRSW	4.35 ± 0.067
LKRRPFDAFNVRMVLVNECG	inactive
KDGEVAAMPGRGVHQVMGEK	0.325 ± 0.49
AFPNNFTRLYALEVLFGFRN	2.1 ± 0.21
MAAVSETHPGAEGSNRVVSE	3.06 ± 0.07
VMNVNSCGWVVRHNR	4.97 ± 0.1
LGTNMAMVGSN	-0.623 ± 0.27
FVRVCLSVIRYFTVTPGFKD	inactive
LARGCFAFN	-0.363 ± 1
YTMGLVSFCLQLGSASFDI	3.56 ± 0.12
DKRIGRVCHSLKIVWCTIML	-0.089 ± 0.41
RLRTKCYFNCCNGHYLEFGG	9.489 ± 0.067
SCRDNIRGQRLGHHAGLWSR	0.479 ± 0.2
NMLYHYIDRSCRGAMDHHGR	inactive
NVDWCCQICSCFTRIFELLM	2.21 ± 0.23
QSYRVPKLFMNAAE	0.197 ± 0.57
FPAQPAVRSRSACWYVLQVR	0.111 ± 0.49
IVACGCVSVSRRSLP	3.09 ± 0.059
TRLLIVDFNIFSIEIVHLMS	2.41 ± 0.071
WVACWTSLLYQVIVIIRGLN	0.975 ± 0.38

Substance	amyloid nucleation score
IGKRASSPYYRPSIVVYSWD	-0.302 ± 0.32
SFCKCLVVALVDVWNRCLPW	4.68 ± 0.051
DAKPVCIDGLFI	-0.839 ± 0.56
FLWKRVVLSREEMAMDTTGS	5.47 ± 0.066
NPTYYRARGE	2.96 ± 0.11
PCNLKNNCVSEWIGLFVQPQ	2.23 ± 0.18
SFEFVACVVMYMCCRTMFIL	-0.164 ± 0.24
VNQLYWILCAYMVLCVGRDA	4.54 ± 0.093
MVVGIAVYRCSFNRTDLFPS	0.655 ± 0.2
WLGRCVNNNLNDVCDFQT	-1.17 ± 0.39
NTLLILHIDICYVYSVILTF	-0.942 ± 0.76
SHTVGFSRAVRVCRGTDHT	0.72 ± 0.38
RIQWKDGYHVARRVFIGNTG	-0.449 ± 0.63
TYQFMHVRLFRPMTSFIVYG	0.36 ± 0.56
RYGVRSQCYGVTKRLFAITA	0.951 ± 0.33
GCMTMTWMTNYLSFHNDTFT	4.26 ± 0.065
ILGDNRLKPVTLSRNVALYY	-1.18 ± 0.78
YWFVGTPCAVRVGWFSQPHR	0.612 ± 0.45
VDLGLLKKTNFTQLYFGDC	0.317 ± 0.16
PQAVLKGTQGHNLTKNLTWA	-0.774 ± 0.49
LITQKHFTRVTNMPIRLCSL	-0.491 ± 0.41
LGSLDPKRHLYI	-0.784 ± 1.1
SGLLVSNKFWGICTNYFGQR	6.684 ± 0.045
NSVETLMNQRCWVCHTCCVK	-0.472 ± 0.64
HFVFI	-1.05 ± 1.1

Substance	amyloid nucleation score
SREINITLGKTFYPSRMYGV	4.48 ± 0.05
YISVKMRSGRTSTLSDCVKA	3.83 ± 0.076
HPYYDQ	0.538 ± 0.45
FNGLSSFSFMLIGTGFDISC	-0.934 ± 0.64
SAGHSKGLQDVAPPRIFMVS	inactive
IQLDTESSLVKRRAWYG	0.34 ± 0.64
WLKYMSCSLAKSQVSACVSV	0.219 ± 0.46
MVVLCHINLYEYGSFNPSST	6.31 ± 0.077
LGLCEVNMFNIRHFTLRSCY	0.219 ± 1
QYMLLMMC	0.671 ± 0.6
MFVRRKSVSMVEYWE	0.054 ± 0.32
SMGINSGGRWRADSVSVGLR	0.786 ± 0.23
VDYLRYLIWFNRS	0.058 ± 0.79
DQCELVSGVWLSIRSADLPY	0.176 ± 0.35
AMLDP	-0.191 ± 0.41
FFCMA	5.48 ± 0.056
QFASISICYKSSIPNDCNDV	1.12 ± 0.2
RPNLLSDILPRGLMAKSMHF	0.107 ± 0.79
TCWKDYIYIFALVNYSGHRA	inactive
NIRKMSGFVNSYTAYSQGEL	inactive
YRVDSHWANLVLKTSMIWTT	-0.829 ± 0.28
SLTGSQSGQGDLCVLVRYNH	3.84 ± 0.12
NFMGIIVLNQ	3.19 ± 0.09
MKYLIVCDFCGLYSPCGFCF	7.808 ± 0.037
FFKLNVRERYWLVKGKSRFR	2.96 ± 0.087

Substance	amyloid nucleation score
DMRLWCVWSSIACDTSYSTS	0.26 ± 0.2
FYCRVFTLSGFVRIWGDC	-0.562 ± 1.1
SCFSIFMLIPSSATAIFSQI	-1.27 ± 1
MNDLMYVVLSRCSMIGNCGS	1.29 ± 0.17
RLDNIIVAERCTSLRESRFG	-0.047 ± 1.1
DRFVLIVHINRGRV	3.86 ± 0.048
WFYNVATYTHVAANTRVMKC	0.231 ± 0.44
VINSMY	1.11 ± 0.45
GVTPYCKRHV	-1.14 ± 0.78
HFMFVSNRVGWVGLLQNYSR	6.657 ± 0.066
PATLAKIYSVGVGNYHRFVR	inactive
WYMQGTLTAMGRGQTQYLSC	0.405 ± 0.64
LRKALIDAFRT	2.18 ± 0.066
IQKVVIVYSHDVYSDQ	6.737 ± 0.048
MINLQYLVGNLAVGL	1.37 ± 0.14
LVSVVNMVADSSRKSSQGEL	4.875 ± 0.039
YWSYSLGGSQEYSGHTMA	-0.135 ± 0.35
SWCCTSIYHVRLW	9.427 ± 0.058
LYVFPCHILDDRCFLCGGWF	-0.353 ± 0.38
